Laboratory results from paper PMC4000066 (Cell, 2014).
Each block holds one binder with its values, some of them ahead of it.

Tests used:
[1] = target: ASC^FL (from His-MBP-ASC^FL after removal of His-MBP by TEV) (UniProt Q9ULZ3 1-195); assay: pull-down
[2] = target: endogenous ASC of THP-1 cells (human (endogenous in THP-1), UniProt Q9ULZ3 1-195); assay: co-IP
endogenous ASC of THP-1 cells, sequence (Q9ULZ3 whole entry): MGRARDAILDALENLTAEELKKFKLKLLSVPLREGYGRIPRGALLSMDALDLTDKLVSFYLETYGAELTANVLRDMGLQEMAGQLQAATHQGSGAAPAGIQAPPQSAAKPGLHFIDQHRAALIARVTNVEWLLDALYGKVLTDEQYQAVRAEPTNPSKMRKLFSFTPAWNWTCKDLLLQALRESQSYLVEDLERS

ASC^FL (from His-MBP-ASC^FL after removal of His-MBP by TEV), sequence (Q9ULZ3 whole entry): as above

binding result [1]: binds
B1: His-GFP-caspase-1^CARD (domain or fragment, UniProt P29466 1-91, looked up)
chain: MADKVLKEKRKLFIRSMGEGTINGLLDELLQTRVLNKEEMEKVKRENATVMDKTRALIDSVIPKGAQACQICITYICEEDSYLAGTLGLSA

stoichiometry N [2]: ~3.5 fold (caspase-1 to ASC)
B2: endogenous caspase-1 of THP-1 cells (enzyme, human (endogenous in THP-1), UniProt P29466 1-404, looked up)
chain: MADKVLKEKRKLFIRSMGEGTINGLLDELLQTRVLNKEEMEKVKRENATVMDKTRALIDSVIPKGAQACQICITYICEEDSYLAGTLGLSADQTSGNYLNMQDSQGVLSSFPAPQAVQDNPAMPTSSGSEGNVKLCSLEEAQRIWKQKSAEIYPIMDKSSRTRLALIICNEEFDSIPRRTGAEVDITGMTMLLQNLGYSVDVKKNLTASDMTTELEAFAHRPEHKTSDSTFLVFMSHGIREGICGKKHSEQVPDILQLNAIFNMLNTKNCPSLKDKPKVIIIQACRGDSPGVVWFKDSVGVSGNLSLPTTEEFEDDAIKKAHIEKDFIAFCSSTPDNVSWRHPTMGSVFIGRLIEHMQEYACSCDVEEIFRKVRFSFEQPDGRAQMPTTERVTLTRCFYLFPGH
